The source of these data is patent publication US6277622.

The target in this test is recombinant tropoelastin (human) (UniProt P15502).

For the substance “recombinant human lysyl oxidase derived from the plasmid p3dL^m2 (enzyme)”, the percentage of total lysine in the precipitate (amino acid analysis) after 2 hrs at 37 C; formation of insoluble protein worked out at 2.5 % lysine.
